Data reported in the DeepSol protein solubility set.

Test: soluble on expression in E. coli; label from the status in PepcDB or PDB records

Row | Sequence | soluble on expression in E. coli
1 | TGRVKWTLGGNIYLNRNKVDDISGNELLGTSYLAGGGVFSQSIHITKAGYPVGSFYGYVVDGVYQNEAEAKLAPFDTPQATPGSLRFKDISGPDGLPDGKITSDDMTIIGTAEPKFNYGINSELSWKGLTLSMIFTGRVGGDIANLNRYFLDSFTDTNDNIRAEAWEGRWQGEGTSNFYPAVNGSQGSSYFNKRFSTFLLEDGSFFRLKNLTLAYQFSLKKLRWLRSVRVFGTVTNVFTITNYSGYDPEVSITSGAMSPNVDYAAYPSSRTYSMGINLAF | not soluble
2 | MSLGTAVLDLMANGVDMLCWADPFFPDPVLPEHISQAVIKSMENGSASHYTMPIGNPELKEKIALKLQRYNNLTVEAQRNILITPGSDSGLLFAMMPFINNDDEVLIHSPSYPSNFLNVELLGGKPISVELKAENNFQIDIKDFENKITEKTKMVILTNPNNPTGTVLRRESLQAIADFIIAHDLILVVDQAFEDAIFDEIEFISIASLPGMWERTVSVFSFSKGMGLSGFRVGYLVADAQIVDVLFGCTVNVVGATNTSSQAGMIAALDEPSFMGEYTQIFERRRKVVFEMMNAIPGVCMVMPESGFLSWIDISKLGTSTFICDYLLQHAHVMVNSGVPYGQGGEGYIRLVHGCYKDDEKLYAVLTRIQQALMQLAKEGHHHHHH | not soluble
3 | MAHHHHHHMGTLEAQTQGPGSMQMNMVETEPVQGCRDFPPETMRLRKYLFDVFHSTARKFGFEEYDSPVLESEELYIRKAGEEITEQMFNFITKGGHRVALRPEMTPSLARQLLAKGRSLLLPAKWYSIPQCWRYEAITRGRRREHYQWNMDIIGVKSVSSEVELVCAACTAMQSLGLSSKDVGVKINSRKILQTVVEQAGVSADKFAPVCVIVDKMEKLPREEVVAQLAAIGLESNVVDAITSTLSLKTIDEIAQRIGEEHEAVRELRDFITQIEAYGFGDWVIFDASVVRGLAYYTGIVFEGFDRDGNFRALCGGGRYDNLLTTYGSPTAVPCVGFGFGDCVIVELLNEKKLLPELHHVVDDLVIPFDETMRPHALSILRRLRDAGRSADIVFDKKKVVQAFNYADRIGALRAVLVAPDEWARGEVRVKMLREGAGREEGANERGIVLPVDKIV | soluble
4 | MVPTPKPVVDRMLELADVDETDVLYDLGSGDGRIVIRAARTHGARGVGIEIDPDLVKKARKNAKEAGVADLVEFRQGDLFEADISEATVVTLYLLPSVNQKLRPILFEQLSPGTPVVSHDFDMGRWAPDRTVDLEGDTVYRWTIPLEHHHHHH | not soluble
5 | MKYDTSELCDIYQEDVNVVEPLFSNFGGRASFGGQIITVKCFEDNGLLYDLLEQNGRGRVLVVDGGGSVRRALVDAELARLAVQNEWEGLVIYGAVRQVDDLEELDIGIQAMAAIPVGAAGEGIGESDVRVNFGGVTFFSGDHLYADNTGIILSEDPLDIE | soluble
6 | MSLIDIHSHIVFDVDDGPKSREESKALLAESYRQGVRTIVSTSHRRKGMFETPEEKIAESFLQVREIAKEVADDLVIAYGAEIYYTPDVLDKLGKKRIPTLNDSRYALIEFSMNTPYRDIHSALSKILMLGITPVIAHIERYDALGNNEKRVRELIDMGCYTQVNSSHVLKPKLFGERYKFMKKRAQYFLEQTLVHVIASDMHNLDGRPPHMAEAYDFVTQKYGEAKAQELFIDNPRKIIMDQLIEGGSHHHHHH | soluble
7 | EQIVAAYDNSLLYTDHFLVRTIGMLRDMSDYDTAMIYLSDHGESLGEKGLYLHGMPYAIAPVEQTRVPMVIWFSKQFVQSRQIDLNCVHQRARQYADHDNLFSSVLGLMQVKTALYERPHDLFATCEK | not soluble
8 | MSCPYIDEDKIVGNVEMELKKGGTFDKLRKQAIEHVKDSKLVHRIENEMLVKVDEIIASSANLTQEEIQRKMKDFMNENAKMRNDINRQIRVEFEKEWVHDELDKEIDEKVNKQLENSI | not soluble
9 | MGSDKIHHHHHHMTLRARIQTAVSLVYPARCLNCGGLVESDFGLCGACWRDTTFISGLVCEGCGAPLPGEDDGQMVHCDACLRAPGEWDRGRAALVYTGQGRRLVLALKHGDRTDLVRPASAWMARAARVLLSPKPLLVPVPLHWTRLLHRRYNQSALLAQAIAAREECDCCPDALIRVAKTPMLEGYSRSERRALLSDAIRPNPRMASRLKGRRVLLVDDVMTSGSTLSACARACMDAGAKSTNVAVLARVTGS | not soluble
10 | MEVSSVFIFPPKPKDVLTITLTPKVTCVVVDISKDDPEVQFSWFVDDVEVHTAQTQPREEQFNSTFRSVSELPIMHQDWLNGKEFKCRVNSAAFPAPIEKTISKTKGRPKAPQVYTIPPPKEQMAKDKVSLTCMITDFFPEDITVEWQWNGQPAENYKNTQPIMDTDGSYFVYSKLNVQKSNWEAGNTFTCSVLHEGLHNHHTEKSLSHSPGKE | soluble
11 | GHHHHHHAIAENLYFQSDLFETSQIEKLLESLENYQPAFPDALVRYYLAKSGFQTDDIRAERLVALAAQKFVADVANDALNHVKLRQQSQATSKKSKENEVILTVEDLSKALEEYGVHLKKPPYYVDSPVVGVGSANLKKRKTEQVTSVKPEEKSLEGKEVFKEEPKEEDKELTQEPENV | soluble
12 | MATTLKPVDAVVVGFGWTGAILAKELTEAGLNVVALERGENRDTYPDGAYPNTLDELTYNTRGKLFQNLSKSTVSIRHGINDTALPYRQLSAFLPGDGVGGAGLHWSGVHFRIMPEELRLRSHYEERYGKKFIPEGMTIQDYGVSYEELEPHFDFAEKVFGTSGTAHTVKGQVVGKGNPFAADRSDDFPLPALRQVYSAQLFRKAAEELGLHPYDLPAANASGPWTNPYGVQMGPCNFCGFCSGYACYMYSKASPNLNILPALRQTPLFELRANCNVLKVNLDSDGRQATGVTYVDAQGREIVQPAKLVIISAFQFHNVRLLLLSGIGKPYDPRTGEGVVGKNFAYQNMATIKAFFDKDVHTNPFVGTGGGGVAVDDFNADNFDHGPLGFVGGSPMWVNQAGSKPIGGLAVPPGTPSWGSGWKQAVKDAYTHTVSMDAHGSNMTYRDNYLDLDPTYKDAYGQPLLRMTFDWKDNEIRMSRYVTEHMRKIAEAMNPKAISVSVKNFGDHFNTRVYQTTHLLGGAIMGSDPKTSVLNRYLQSWDVHNVFVMGASAFPQGTGYNPTGLVAALAYWSAKAIREQYLKNPGPLVQALEHHHHHH | not soluble
13 | MGHHHHHHSHMVTMEELREMDCSVLKRLMNRDENGGGAGGSGSHGTLGLPSGGKCLLLDCRPFLAHSAGYILGSVNVRCNTIVRRRAKGSVSLEQILPAEEEVRARLRSGLYSAVIVYDERSPRAESLREDSTVSLVVQALRRNAERTDICLLKGGYERFSSEYPEFCSKTKALAAIP | not soluble
14 | MKRMLASLLGTAIALGSGLALAAEADLQALEQAARKEGQVNSVGMPDSWANWKDTWKDLESKYGLKHMDTDMSSAQELAKFKAEKDNASADIGDVGAAFGPIAVQQGVSQPYKPSTWEQIPAWAKDQDGHWALAYTGTIAFIVNKQLVKDVPHSWADLLQGKYKVTIGDVSAAAQAVNGVLAAAIANGGDEKNIKPGLEFFGKIAKQGRLSLTNPVIATLEKGEVEVGIVWDFNGLSYRQQIDPERFEVLIPSDGSVISGYTTIINKYAKHPNAAKLAREYIFSDAGQINLAKGNARPIRAESLTLPDDVKAQLLPNEQYAKAQPIKDAKAWEETSKRLPRQWQEAVIINMQ | not soluble
15 | MSLSRAFLVAAPSSGSGKTTITLGLLRLFARRGMAVQPFKCGPDYLDTMLHAMAASTGETARPGLNLDTFMASKEHVRSLFARNAASADISVIEGVMGLFDGAEKSDGSSAEIAALLGLPVIMVIDGSKIAYSAAPILYGFKHFDPSVKVAGVIFNRVGSASHYSHLEAAAKDVGVEPLGYLPRNSDITISERHLGLNTSAEYDREKLIDAMAEHIEKTVNIERLLDVARIELPEIEQAQPVTKKLDKVIAVARDEAFNFIYHDNLETLKRYGEVRFFSPLHDRELPKADLVYLAGGYPELHAEALAANKTMRKAIAEWCRNRGATWAECGGLMYLGKTLTLADGAAHPMCGVLDLDTTMQEARLTLGYRKVYPAGADGVELRGHEFHYSRIWRQGEIDTIAEIRNARGQQVGTKLFRVGNTIASYLHLYWGEHDYLANWFDVLREGHHHHHH | soluble
